# Measurements: US12630600B2 (MEDIMMUNE LIMITED, priority 2022, dated 2026)
# Starred links: 1 amine or outer side, 2 acyl side, 3 side chain; linkers in the order of their positions; H or OH if unused. Non-standard residues stand in square brackets, D forms with d. Groups on a side chain read outwards from the residue. No end group written: not given here. *: point of attachment. C18 diacid = O=C(O)CCCCCCCCCCCCCCCCC(=O)*; γGlu = O=C(O)[C@H](CCC(=O)[*:2])N[*:1]; αMeF = C[C@](N)(Cc1ccccc1)C(=O)O; AEEA = NCCOCCOCC(=O)O; Aib = CC(C)(N)C(=O)O
# B1: Peptide 518 (peptide)
# peptide: H[Aib]QGTFTSDVSK[αMeF]LDTK([AEEA-AEEA-γGlu-γGlu-C18 diacid])RARDFVQWLLE[Aib]G-OH
# modifications: N-terminus assumed
# SMILES: CC(C)C[C@H](NC(=O)[C@H](Cc1c[nH]c2ccccc12)NC(=O)[C@H](CCC(N)=O)NC(=O)[C@@H](NC(=O)[C@H](Cc1ccccc1)NC(=O)[C@H](CC(=O)O)NC(=O)[C@H](CCCNC(=N)N)NC(=O)[C@H](C)NC(=O)[C@H](CCCNC(=N)N)NC(=O)[C@H](CCCCNC(=O)COCCOCCNC(=O)COCCOCCNC(=O)CC[C@H](NC(=O)CC[C@H](NC(=O)CCCCCCCCCCCCCCCCC(=O)O)C(=O)O)C(=O)O)NC(=O)[C@@H](NC(=O)[C@H](CC(=O)O)NC(=O)[C@H](CC(C)C)NC(=O)[C@](C)(Cc1ccccc1)NC(=O)[C@H](CCCCN)NC(=O)[C@H](CO)NC(=O)[C@@H](NC(=O)[C@H](CC(=O)O)NC(=O)[C@H](CO)NC(=O)[C@@H](NC(=O)[C@H](Cc1ccccc1)NC(=O)[C@@H](NC(=O)CNC(=O)[C@H](CCC(N)=O)NC(=O)C(C)(C)NC(=O)[C@@H](N)Cc1c[nH]cn1)[C@@H](C)O)[C@@H](C)O)C(C)C)[C@@H](C)O)C(C)C)C(=O)N[C@@H](CC(C)C)C(=O)N[C@@H](CCC(=O)O)C(=O)NC(C)(C)C(=O)NCC(=O)O
# B2: Peptide 519 (peptide)
# peptide: H[Aib]QGTFTSDVSK[αMeF]LDTK([γGlu-γGlu-AEEA-AEEA-γGlu-γGlu-C18 diacid])RARDFVQWLLE[Aib]G-OH
# modifications: N-terminus assumed
# SMILES: CC(C)C[C@H](NC(=O)[C@H](Cc1c[nH]c2ccccc12)NC(=O)[C@H](CCC(N)=O)NC(=O)[C@@H](NC(=O)[C@H](Cc1ccccc1)NC(=O)[C@H](CC(=O)O)NC(=O)[C@H](CCCNC(=N)N)NC(=O)[C@H](C)NC(=O)[C@H](CCCNC(=N)N)NC(=O)[C@H](CCCCNC(=O)CC[C@H](NC(=O)CC[C@H](NC(=O)COCCOCCNC(=O)COCCOCCNC(=O)CC[C@H](NC(=O)CC[C@H](NC(=O)CCCCCCCCCCCCCCCCC(=O)O)C(=O)O)C(=O)O)C(=O)O)C(=O)O)NC(=O)[C@@H](NC(=O)[C@H](CC(=O)O)NC(=O)[C@H](CC(C)C)NC(=O)[C@](C)(Cc1ccccc1)NC(=O)[C@H](CCCCN)NC(=O)[C@H](CO)NC(=O)[C@@H](NC(=O)[C@H](CC(=O)O)NC(=O)[C@H](CO)NC(=O)[C@@H](NC(=O)[C@H](Cc1ccccc1)NC(=O)[C@@H](NC(=O)CNC(=O)[C@H](CCC(N)=O)NC(=O)C(C)(C)NC(=O)[C@@H](N)Cc1c[nH]cn1)[C@@H](C)O)[C@@H](C)O)C(C)C)[C@@H](C)O)C(C)C)C(=O)N[C@@H](CC(C)C)C(=O)N[C@@H](CCC(=O)O)C(=O)NC(C)(C)C(=O)NCC(=O)O
# Molecular target: human glucagon receptor (human, UniProt P47871)
# Test: cell-based or functional assay
row,cAMP production EC50,Binder
1,1.62 nM,H[Aib]QGTFTSDVSK[αMeF]LDTKRARDFVQWLLE[Aib]G-OH (not fully specified (residue 17)) [Peptide 520]
2,0.0773 nM,B1
3,0.386 nM,B2

# Molecular target: human GLP-1 receptor (human, UniProt P43220)
# Test: cell-based or functional assay
row,cAMP production EC50,Binder
1,0.543 nM,H[Aib]QGTFTSDVSK[αMeF]LDTKRARDFVQWLLE[Aib]G-OH (not fully specified (residue 17)) [Peptide 520]
2,0.031 nM,B1
3,0.172 nM,B2
